For orientation: Km means the substrate concentration at which the rate is half of its maximum. The kcat is the number of substrate molecules converted per active site and unit of time at saturation. The kcat/Km is the second-order rate constant that governs catalysis at low substrate concentration.

Substrate in this data set: Nc1ncnc2c1ncn2[C@@H]1O[C@H](COP(=O)(O)OC(=O)CCc2c[nH]c3ccccc23)[C@@H](O)[C@H]1O
The data set is described as follows: purified protein. Conditions: 20 mM HEPES, 1 mM MgCl2, pH 7.2, 25 °C.

B1: human histidine triad nucleotide binding protein 1 (hHint1) (Homo sapiens; H114A) (protein)
chain: ADEIAKAQVARPGGDTIFGKIIRKEIPAKIIFEDDRCLAFHDISPQAPTHFLVIPKKHISQISVAEDDDESLLGHLMIVGKKCAADLGLNKGYRMVVNEGSDGGQSVYHVHLAVLGGRQMHWPPG
For the protein B1, the Michaelis constant (Km) amounted to 0.12 ± 0.01 µM, the kcat amounted to 0.69 ± 0.05 s⁻¹ and the catalytic efficiency (kcat/Km) came out at 6e+06 ± 1e+06 M⁻¹ s⁻¹.

(Values after publication PMC3835729.)
